Read-outs that look alike come from different tables or passages of the source.

One assay deals with FcγRIIaR (human) (UniProt P12318). Nature of the assay: Biacore. On the technique in general: In SPR one partner is held on a chip, and binding of the other changes the refractive index at the surface.
Assay [1] addresses human FcγRI (human) (UniProt P12314). As to the kind of experiment: Biacore.
Assay [2] deals with human H131 FcγRIIa (human) (UniProt P12318). As to the kind of experiment: Biacore.
human H131 FcγRIIa (human), sequence (P12318 other isoform, or with tags, fused parts or gaps limits assumed): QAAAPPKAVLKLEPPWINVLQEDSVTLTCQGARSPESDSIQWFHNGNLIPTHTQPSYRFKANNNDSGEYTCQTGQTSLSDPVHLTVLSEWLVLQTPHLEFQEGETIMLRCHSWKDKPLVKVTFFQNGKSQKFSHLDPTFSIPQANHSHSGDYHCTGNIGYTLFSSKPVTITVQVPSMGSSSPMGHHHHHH
For assay [3], the target named is human V158 FcγRIIIa (human) (UniProt P08637). Nature of the assay: Biacore.
human V158 FcγRIIIa (human), sequence (P08637 other isoform, or with tags, fused parts or gaps limits assumed): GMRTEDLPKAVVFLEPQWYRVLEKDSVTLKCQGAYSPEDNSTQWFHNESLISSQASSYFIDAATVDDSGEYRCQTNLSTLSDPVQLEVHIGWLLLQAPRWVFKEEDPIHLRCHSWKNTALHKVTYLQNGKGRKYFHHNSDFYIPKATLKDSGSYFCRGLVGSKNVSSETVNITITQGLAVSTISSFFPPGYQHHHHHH
Assay [4] concerns the target recombinant human FcγRIIb protein (human) (UniProt P31994). As to the kind of experiment: Biacore.
The target in assay [5] is human FcγRI (human) (UniProt P12314). Nature of the assay: Biacore. The source holds these as a separate data set.
human FcγRI (human), sequence (P12314 16-288 limits assumed): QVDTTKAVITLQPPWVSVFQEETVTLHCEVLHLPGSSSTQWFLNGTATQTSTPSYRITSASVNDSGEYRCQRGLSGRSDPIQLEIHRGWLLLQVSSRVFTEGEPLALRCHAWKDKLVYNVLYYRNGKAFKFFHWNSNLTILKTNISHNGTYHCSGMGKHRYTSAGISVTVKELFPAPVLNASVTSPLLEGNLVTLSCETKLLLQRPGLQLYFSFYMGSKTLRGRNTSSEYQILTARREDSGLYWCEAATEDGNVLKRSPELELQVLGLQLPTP
Assay [6] addresses human H131 FcγRIIa (human) (UniProt P12318). As to the kind of experiment: Biacore. This is another data set of the same source.
Assay [7] has as its target human V158 FcγRIIIa (human) (UniProt P08637). As to the kind of experiment: Biacore. This is another data set of the same source.
Assay [8] concerns the target recombinant human FcγRIIb protein (human) (UniProt P31994). As to the kind of experiment: Biacore. The source holds these as a separate data set.
Assay [9] has the same target. Nature of the assay: Biacore SPR, antibody captured on protein A/G, FcγRIIb injected.
Assay [10] concerns the target XENP12704, anti-IgE antibody containing human C3d fused to the C-terminus of Ckappa (human) (UniProt P01834). Nature of the assay: ELISA, CR2-Fc coated; the concentration is that of XENP12704.
Another assay deals with FcγRIIIaF (human) (UniProt P08637). Nature of the assay: Biacore.
FcγRIIIaF (human), sequence (P08637 17-208 limits assumed): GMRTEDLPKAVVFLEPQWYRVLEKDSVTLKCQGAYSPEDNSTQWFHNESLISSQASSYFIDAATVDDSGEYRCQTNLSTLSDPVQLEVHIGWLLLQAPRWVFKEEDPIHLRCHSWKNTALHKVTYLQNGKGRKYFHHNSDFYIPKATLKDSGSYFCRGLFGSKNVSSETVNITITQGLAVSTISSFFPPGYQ
The target in assay [11] is IgE (from a human IgE ELISA kit, Bethyl Laboratories) (human) (UniProt P01854). As to the kind of experiment: sandwich ELISA, antibody coated as capture; the concentration is that of IgE. For orientation: An ELISA detects its analyte on a solid surface through an enzyme-linked reagent.
IgE (from a human IgE ELISA kit, Bethyl Laboratories) (human), sequence (P01854 other isoform, or with tags, fused parts or gaps): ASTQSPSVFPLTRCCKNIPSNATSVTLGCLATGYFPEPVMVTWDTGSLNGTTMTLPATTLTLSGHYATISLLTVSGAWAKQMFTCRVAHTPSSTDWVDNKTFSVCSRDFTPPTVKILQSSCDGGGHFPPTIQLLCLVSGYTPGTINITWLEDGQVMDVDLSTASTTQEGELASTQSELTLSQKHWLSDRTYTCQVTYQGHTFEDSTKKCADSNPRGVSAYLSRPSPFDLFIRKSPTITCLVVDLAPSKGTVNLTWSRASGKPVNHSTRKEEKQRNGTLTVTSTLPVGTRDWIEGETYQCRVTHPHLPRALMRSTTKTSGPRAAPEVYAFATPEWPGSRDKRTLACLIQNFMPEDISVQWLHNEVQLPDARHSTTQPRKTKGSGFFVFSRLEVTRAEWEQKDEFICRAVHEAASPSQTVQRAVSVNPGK

recombinant human FcγRIIb protein (human), sequence (P31994 46-217 limits assumed): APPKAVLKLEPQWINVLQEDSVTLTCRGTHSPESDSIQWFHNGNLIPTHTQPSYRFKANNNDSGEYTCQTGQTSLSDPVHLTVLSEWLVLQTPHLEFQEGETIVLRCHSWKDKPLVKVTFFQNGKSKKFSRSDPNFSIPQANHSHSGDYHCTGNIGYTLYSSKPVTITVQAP
FcγRIIaR (human), sequence (P12318 34-217 H167R limits assumed): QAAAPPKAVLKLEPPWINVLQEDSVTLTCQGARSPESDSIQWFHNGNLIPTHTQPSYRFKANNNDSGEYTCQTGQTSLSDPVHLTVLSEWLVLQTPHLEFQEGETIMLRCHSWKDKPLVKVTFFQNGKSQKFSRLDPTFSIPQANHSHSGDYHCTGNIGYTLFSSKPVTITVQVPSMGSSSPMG
XENP12562 (hSCR1-4 Fc fusion), sequence (P20023 21-273 limits assumed): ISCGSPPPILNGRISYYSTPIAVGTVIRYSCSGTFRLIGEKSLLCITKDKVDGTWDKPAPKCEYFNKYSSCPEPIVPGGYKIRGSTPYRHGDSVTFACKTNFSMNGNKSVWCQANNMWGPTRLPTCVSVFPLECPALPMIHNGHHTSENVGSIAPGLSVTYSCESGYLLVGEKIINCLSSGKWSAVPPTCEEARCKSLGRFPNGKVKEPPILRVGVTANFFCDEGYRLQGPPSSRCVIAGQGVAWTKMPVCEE
XENP12561 (hSCR1-2 Fc fusion), sequence (P20023 21-148 limits assumed): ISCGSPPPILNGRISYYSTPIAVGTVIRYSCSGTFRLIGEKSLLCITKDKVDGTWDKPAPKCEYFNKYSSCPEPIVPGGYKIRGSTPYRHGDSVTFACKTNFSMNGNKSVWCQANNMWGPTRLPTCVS

Consider “anti-CD19 antibody HuAM4G7, WT (native) IgG1 Fc”, for which the Fold (with FcγRIIaR (human); with human FcγRI (human) [5]; in assay [6]; in assay [7]; in assay [8]) was 1 throughout. Besides, the Kd (usually a measure of binding affinity in units of concentration) with FcγRIIaR (human) was 859 nM; in the assay with human FcγRI (human) [1], 0.329 nM; in assay [2], 646 nM; in assay [3], 191 nM; in assay [4] it was 1470 nM; in the assay with human FcγRI (human) [5], 0.28 nM. Also, the Kd was determined as 850 nM in [6], 200 nM in assay [7] and 1800 nM in assay [9].

For “XENP12561 (hSCR1-2 Fc fusion) (from UniProt P20023 21-148)”, the EC50 (read off the curve) (in general, the midpoint of the concentration-response curve) in assay [10] stood at 0.02 µg/mL.

For the substance “anti-CD19 antibody HuAM4G7, IgG1 Fc variant G236D/S267E”, the Kd with human FcγRI (human) [1] is 3.71 nM; in [2], 2730 nM; in assay [3], 579 nM; in assay [4], 26.6 nM; with human FcγRI (human) [5], 3.2 nM; in assay [6], 2200 nM. In assay [8], the Kd came to 25 nM.

Turning to L328F (antibody), the Kd came to 166 nM with FcγRIIaR (human); 5110 nM in the assay with FcγRIIIaF (human); 0.452 nM in the assay with human FcγRI (human) [1]; 58400 nM in [3]; 541 nM in assay [4].

“XENP12562 (hSCR1-4 Fc fusion) (from UniProt P20023 21-273)” registered an EC50 (read off the curve) in assay [10] of 0.003 µg/mL.

Consider S267E (antibody), for which the Fold in the assay with FcγRIIaR (human) came to 29.5; with human FcγRI (human) [1], 2.81; in assay [2], 0.753; in assay [3], 0.381; in [4] it was 20.4; in the assay with human FcγRI (human) [5], 1.1. The Fold in assay [6] worked out at 0.89; in [7], 0.29; in [8], 30. Moreover, the Kd in the assay with FcγRIIaR (human) was determined as 29.1 nM; in the assay with human FcγRI (human) [1] it was 0.117 nM; in assay [2], 859 nM; in assay [3], 503 nM; in assay [4] it was 71.9 nM; with human FcγRI (human) [5], 0.26 nM. Besides, the Kd in [6] was 960 nM; in assay [7], 690 nM; in [8], 60 nM.

In the case of “anti-CD19 antibody HuAM4G7, IgG1 Fc variant S267E/L328F”, the Fold with FcγRIIaR (human) was 275; in the assay with human FcγRI (human) [1] it was 1.5; in [2], 0.7; in [3] it was 0.038; in assay [4], 242; with human FcγRI (human) [5] it was 1.2. The Fold in assay [6] worked out at 0.97; in assay [8], 429. In addition, the Kd came out at 3.12 nM in the assay with FcγRIIaR (human); 0.22 nM with human FcγRI (human) [1]; 923 nM in assay [2]; 5040 nM in assay [3]; 6.06 nM in assay [4]; 0.23 nM with human FcγRI (human) [5]. The Kd in assay [6] came to 880 nM; in [8], 4.2 nM.

For “anti-CD19 antibody HuAM4G7, WT (native) IgG1 Fc (antibody; other documents disagree on this pair)”, in the assay with FcγRIIIaF (human), the Fold was determined as 1 and the Kd was determined as 1350 nM.

In the case of “anti-CD19 antibody HuAM4G7, IgG1 Fc variant S239D/S267E”, the Fold was found to be 120 with FcγRIIaR (human); 2.62 with FcγRIIIaF (human); 23.2 in the assay with human FcγRI (human) [1]; 1.27 in assay [2]; 3.74 in assay [3]; 111 in [4]. The Fold in the assay with human FcγRI (human) [5] amounted to 1.6; in assay [6], 1.2; in assay [7], 3; in assay [8], 150. The Kd in the assay with FcγRIIaR (human) came to 7.16 nM; with FcγRIIIaF (human), 516 nM; with human FcγRI (human) [1], 0.0142 nM; in [2], 510 nM; in [3], 51.2 nM; in assay [4] it was 13.3 nM. The dissociation constant Kd in the assay with human FcγRI (human) [5] was found to be 0.17 nM; in assay [6], 700 nM; in [7] it was 62 nM; in assay [8] it was 12 nM.

In the case of “anti-CD19 antibody HuAM4G7, IgG1 Fc variant S239D/I332E”, the Kd with FcγRIIaR (human) amounted to 68.6 nM; with FcγRIIIaF (human), 28.2 nM; with human FcγRI (human) [1], 0.0374 nM; in assay [2], 163 nM; in assay [4] it was 101 nM; in the assay with human FcγRI (human) [5], 0.14 nM. For the same substance, the dissociation constant (Kd) in [6] is 220 nM; in [7], 6.8 nM; in [8], 88 nM.

For the substance S239D (antibody), the Fold with FcγRIIaR (human) was found to be 3.73; in the assay with FcγRIIIaF (human), 6.32; with human FcγRI (human) [1] it was 3.53; in assay [3] it was 8.14; in assay [4] it was 3.6. In addition, the Kd is 230 nM with FcγRIIaR (human); 214 nM with FcγRIIIaF (human); 0.0934 nM with human FcγRI (human) [1]; 590 nM in assay [2]; 23.5 nM in [3]; 408 nM in assay [4].

Regarding MaE11_IgG1_G236R/L328R (antibody), in assay [11], the EC50 (read off the curve) stood at 0.05 µg/mL.

Source of the values: US20140212436A1.
